Assay results as given in patent US20200055930A1 (Pfizer, published 2020).
Where a chain is given by its changes, count along the chain named. Where “and” joins values, the source holds several entries; their conditions need not be identical. Equal values may be shown once. One block for each binder: values may come before it.

What was measured:
[1] = target: Mouse Fc-mouse GDF15 (Mu IgG1Fc_Fxa_Mu GDF15) (mouse (GDF15 part)); assay: SPR BIAcore T200 37C; Fc-GDF15 captured, monomeric Fc-Fab analyte
[2] = target: T1, Mouse Fc-cynomolgus monkey GDF15 (Mu IgG1Fc_Fxa_Cyno GDF15) (cynomolgus monkey (GDF15 part)); assay: as above
T1 construct: Whole fusion entry; also called Murine dimeric IgG1 Fc-cyno GDF-15 with FXa cleavage site
T1 chain: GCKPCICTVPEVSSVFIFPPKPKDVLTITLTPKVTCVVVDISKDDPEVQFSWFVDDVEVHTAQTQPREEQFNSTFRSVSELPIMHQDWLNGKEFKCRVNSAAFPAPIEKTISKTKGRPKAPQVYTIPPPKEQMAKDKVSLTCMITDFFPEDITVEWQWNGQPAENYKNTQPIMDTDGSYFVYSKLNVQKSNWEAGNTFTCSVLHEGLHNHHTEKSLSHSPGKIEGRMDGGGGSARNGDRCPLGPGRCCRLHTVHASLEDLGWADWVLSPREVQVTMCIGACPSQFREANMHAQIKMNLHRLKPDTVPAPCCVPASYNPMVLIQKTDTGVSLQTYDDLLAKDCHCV
Excerpt: (§1) To understand the KD value, without the avidity effect, of GDF15_001 binding to GDF15, monomeric Fc-Fab was produced and tested in the same assay used in Example 2. […] Mu IgG1Fc_Fxa_Hu GDF15, Mu IgG1Fc_Fxa_Mu GDF15 and Mu IgG1Fc_Fxa_Cyno GDF15 were captured onto three different flow cells of a CM4 sensorchip (catalogue number BR100534, GE Healthcare) surface using the Mouse Antibody Capture Kit (BR100838, GE Healthcare) according to the manufacturer's protocol. The running and sample buffer was 10 mM HEPES pH 7.4, 0.15M NaCl, 3 mM EDTA, 0.05% P-20 (HBS-EP+). The final capture levels of Mu IgG1Fc_Fxa_Hu GDF15, Mu IgG1Fc_Fxa_Mu GDF15 and Mu IgG1Fc_Fxa_Cyno GDF15 were 19 resonance units (RU), 22 RU and 19 RU respectively. Flow cell 1 was used as a reference flow cell. […] The dissociation was monitored for 1200 seconds and the surface was regenerated with 10 mM Glycine pH 1.7. Binding affinities and rate constants were determined by fitting the resulting sensorgram data to a 1:1 Langmuir model in BIAcore T200 Evaluation software version 2.0 (GE Healthcare).

[3] = target: T2, Mouse Fc-human GDF15 (Mu IgG1Fc_Fxa_Hu GDF15) (human (GDF15 part)); assay: as above
T2 construct: Whole fusion entry; also called Murine dimeric IgG1 Fc-human GDF-15 with FXa cleavage site; control human GDF15
T2 chain: T1 chain with R239H, H254R, E287A, M296T, N297S, V345I
Excerpt: as §1

[4] = target: Mouse Fc-mouse GDF15 (Mu IgG1Fc_Fxa_Mu GDF15) (mouse (GDF15 part)); assay: SPR BIAcore T200 37C; Fc-GDF15 captured, monomeric Fc-Fab analyte; murine GDF15 ligand (Mu IgG1Fc_Fxa_Mu GDF15), first run
[5] = target: Mouse Fc-mouse GDF15 (Mu IgG1Fc_Fxa_Mu GDF15) (mouse (GDF15 part)); assay: SPR BIAcore T200 37C; Fc-GDF15 captured, monomeric Fc-Fab analyte; average
[6] = target: Mouse Fc-mouse GDF15 (Mu IgG1Fc_Fxa_Mu GDF15) (mouse (GDF15 part)); assay: SPR BIAcore T200 37C; Fc-GDF15 captured, monomeric Fc-Fab analyte; murine GDF15 ligand (Mu IgG1Fc_Fxa_Mu GDF15), second run
[7] = target: T2, Mouse Fc-human GDF15 (Mu IgG1Fc_Fxa_Hu …); assay: SPR BIAcore T200 37C; Fc-GDF15 captured, IgG analyte
Method: Mouse Fc-human GDF15 (Mu IgG1Fc_Fxa_Hu GDF15; SEQ ID NO:2), Mouse Fc-mouse GDF15 (Mu IgG1Fc_Fxa_Mu GDF15; SEQ ID NO:5) and Mouse Fc-cynomolgus monkey GDF15 (Mu IgG1Fc_Fxa_Cyno GDF15; SEQ ID NO:4) were captured onto three different flow cells of a CM4 sensorchip (catalogue number BR100534, GE Healthcare) surface using the Mouse Antibody Capture Kit (BR100838, GE Healthcare) according to the manufacturer's protocol. The running and sample buffer was 10 mM HEPES pH 7.4, 0.15M NaCl, 3 mM EDTA, 0.05% P-20 (HBS-EP+). The final capture levels of Mu IgG1Fc_Fxa_Hu GDF15, Mu IgG1Fc_Fxa_Mu GDF15 and Mu IgG1Fc_Fxa_Cyno GDF15 were 40 resonance units (RU), 32 RU and 25 RU respectively. Flow cell 1 was used as a reference flow cell. […] The dissociation was monitored for 2.8 hours and the surface was regenerated with 10 mM Glycine pH 1.7. Binding affinities and rate constants were determined for murine and cynomolgus monkey GDF15 by fitting the resulting sensorgram data to a 1:1 Langmuir model in BIAcore T200 Evaluation software version 2.0 (GE Healthcare). […]

[8] = target: T2, Mouse Fc-human GDF15 (Mu IgG1Fc_Fxa_Hu …); assay: SPR BIAcore T200 37C; Fc-GDF15 captured, IgG analyte; same run as printed in Table 6 (the 8th table r8)
Method: (§2) Mouse Fc-human GDF15 (Mu IgG1Fc_Fxa_Hu GDF15; SEQ ID NO:2), Mouse Fc-mouse GDF15 (Mu IgG1Fc_Fxa_Mu GDF15; SEQ ID NO:5) and Mouse Fc-cynomolgus monkey GDF15 (Mu IgG1Fc_Fxa_Cyno GDF15; SEQ ID NO:4) were captured onto three different flow cells of a CM4 sensorchip (catalogue number BR100534, GE Healthcare) surface using the Mouse Antibody Capture Kit (BR100838, GE Healthcare) according to the manufacturer's protocol. The running and sample buffer was 10 mM HEPES pH 7.4, 0.15M NaCl, 3 mM EDTA, 0.05% P-20 (HBS-EP+). The final capture levels of Mu IgG1Fc_Fxa_Hu GDF15, Mu IgG1Fc_Fxa_Mu GDF15 and Mu IgG1Fc_Fxa_Cyno GDF15 were 40 resonance units (RU), 32 RU and 25 RU respectively. Flow cell 1 was used as a reference flow cell. […] The dissociation was monitored for 2.8 hours and the surface was regenerated with 10 mM Glycine pH 1.7. Binding affinities and rate constants were determined for murine and cynomolgus monkey GDF15 by fitting the resulting sensorgram data to a 1:1 Langmuir model in BIAcore T200 Evaluation software version 2.0 (GE Healthcare).
(§3) Additionally, the binding of clone GDF15_001 to cynomolgus monkey and mouse GDF15 was measured using above mentioned BIAcore assay (Table 7).

[9] = target: T2, Mouse Fc-human GDF15 (Mu IgG1Fc_Fxa_Hu …); assay: SPR BIAcore T200 37C; Fc-GDF15 captured, IgG analyte; same run as printed in Table 6 (the 8th table r7)
Method: as §2, §3

[10] = target: T1, Mouse Fc-cynomolgus monkey GDF15 (Mu …); assay: SPR BIAcore T200 37C; Fc-GDF15 captured, IgG analyte
Method: as §2, §3

[11] = target: T2, Mouse Fc-human GDF15 (Mu IgG1Fc_Fxa_Hu …); assay: SPR BIAcore T200 37C; Fc-GDF15 captured, IgG analyte; same run as printed in Table 6 (the 8th table r9)
Method: as §2, §3

T½ [1]: 3.39 min and 3.73 min
koff [1]: 0.00341 s⁻¹ and 0.0031 s⁻¹
kon [1]: 1.62e+06 M⁻¹ s⁻¹ and 1.7e+06 M⁻¹ s⁻¹
T½ [2]: 2.57 h and 2.05 h
T½ [3]: 8.54 h and 4.2 h
Kd [4]: 2.11 nM
Kd [5]: 1.97 nM
koff [5]: 0.00326 s⁻¹
kon [5]: 1.66e+06 M⁻¹ s⁻¹
Kd [6]: 1.82 nM
B1: monomeric GDF15_001 (Fab, V domains shown)
VH: QVQLVQSGAEVKKPGSSVKVSCKASGYTFSSYNIDWVRQAPGQGLEWMGGINPIFGTAFYNQKFQGRVTITADESTSTAYMELSSLRSEDTAVYYCAREAITTVGAMDHWGQGTLVTVSS
VL: EIVLTQSPATLSLSPGERATLSCRTSQSVHNYLAWYQQKPGQAPRLLIYDASTRADGIPARFSGSGSGTDFTLTISSLEPEDFAVYYCQQFWSWPWTFGQGTKVEIK
notes: only the variable domains of GDF15_001 are tied to it; also called CH23LS-GDF15_001; CH23LS-GBT-GDF15_001

T½ [7]: 10.7 h and 13 h
B2: GDF15_014 (antibody, human IgG1, kappa, V domains shown)
VH: B1 VH with G50Q, F55N, T57L, H109Y
VL: EIVLTQSPATLSLSPGERATLSCRTSQNVHNYLAWYQQKPGQAPRLLIYDASNRATGIPARFSGSGSGTDFTLTISSLEPEDFAVYYCQQFWSDPYTFGQGTKVEIKR
notes: Tested in bivalent format

T½ [7]: 0.661 h and 0.547 h
B3: GDF15_021 (antibody, human IgG1, kappa, V domains shown)
VH: B1 VH with F55N, T57L, A58I, Y60F
VL: B2 VL with Q27E, N31S, R54L, T56D
notes: Tested in bivalent format

T½ [7]: 2.7 h and 2.35 h
B4: GDF15_004 (antibody, human IgG1, kappa, V domains shown)
VH: B1 VH with G50Q, I54N, F55N, T57L, F59N, N61A, V104I, H109Y
VL: B2 VL with Q27E, N28S, N31S, N53T, T56D
notes: Tested in bivalent format

T½ [7]: 2.67 h and 2.1 h
B5: GDF15_003 (antibody, human IgG1, kappa, V domains shown)
VH: B1 VH with S30T, G50Q, I54N, F55N, T57L, A100Q, H109Y
VL: B2 VL with T25A, N28S, V29L, H30S, N31S, S52K, T56D, W92S
notes: Tested in bivalent format

T½ [7]: 2.03 h and 1.7 h
B6: GDF15_020 (antibody, human IgG1, kappa, V domains shown)
VH: B1 VH with S31D, I34M, G50Q, I54N, F55N, T57L, F59N, H109Y
VL: B2 VL with T25A, V29L, N31S, N53T, T56D
notes: Tested in bivalent format

T½ [7]: 1.94 h and 1.86 h
B7: GDF15_015 (antibody, human IgG1, kappa, V domains shown)
VH: B1 VH with S31D, I34M, G50Q, I54N, F55N, T57L, M107T, H109Y
VL: B2 VL with N31S, R54L, T56D, W92S, S93N, Y96W
notes: Tested in bivalent format

T½ [7]: 10.9 h and 13.3 h
B8: GDF15_022 (antibody, human IgG1, kappa, V domains shown)
VH: B1 VH with S31D, G50Q, I54N, F55N, T57L, A58I, Y60F, A100V, H109Y
VL: B2 VL with N28S, N31S, S52K, N53T, T56D, W92S
notes: Tested in bivalent format

T½ [8]: 30.8 h
T½ [7]: 40.3 h and 20.9 h and 30.8 h
T½ [9]: 20.9 h
T½ [10]: 14.8 h and 15.5 h and 18.7 h
T½ [11]: 40.3 h
B9: GDF15_001 (antibody, human IgG1, kappa, V domains shown)
VH: B1 VH
VL: B2 VL with N28S, N53T, T56D, D94W, Y96W
notes: Bivalent IgG1/kappa; also called clone GDF15_001; anti-GDF15_001

T½ [7]: 2.89 h and 2.56 h
B10: GDF15_013 (antibody, human IgG1, kappa, V domains shown)
VH: B1 VH with S31D, I34M, I54N, F55N, T57L, H109Y
VL: B2 VL with Q27E, N28S, N31S, S93N, D94W, Y96W
notes: Tested in bivalent format

T½ [7]: 2.35 h and 2.22 h
B11: GDF15_017 (antibody, human IgG1, kappa, V domains shown)
VH: B1 VH with S30T, S31D, G50Q, I54N, F55N, T57L, T91N, H109Y
VL: B2 VL with N28S, N31S, S52K, N53T, W92S
notes: Tested in bivalent format

T½ [7]: 13.1 h and 10.8 h
B12: GDF15_010 (antibody, human IgG1, kappa, V domains shown)
VH: B1 VH with S31D, I54N, F55N, T57L, Y60F, H109Y
VL: B2 VL with N28S, V29L, N31S, S93N, Y96W
notes: Tested in bivalent format

T½ [7]: 17.7 h and 14.9 h
B13: GDF15_0297 (antibody, mouse IgG1, kappa, V domains shown)
VH: QVQLQQPGAELVKPGASVKMSCKASGYPFEGWYIHWVKQRPGQGLEWMGWNNPRTGLTNHAQKFQGKVTMTRDTSSSTAYMQLSSLTSEDSAVYYCARGVGADAAFDIWGQGTTLTVSS
VL: DIVMTQSPSSLSVSAGEKVTMSCRSSQSLLWKHGYNYLDWYQQKPGQPPKLLIYLDRNRAHGVPDRFTGSGSGTDFTLTISSVQAEDLAVYYCMQSFETPITFGGGTKLEIKR
notes: also called GDF15_297; GDF_0297

T½ [7]: 3.7 h and 4.47 h
B14: GDF15_0470 (antibody, human IgG1, kappa, V domains shown)
VH: QVQLVQSGAEVKKPGASVKVSCKASGYPFEGWYIHWVRQAPGQGLEWMGWNNPRTGLTNHAQKFQGRVTMTRDTSISTAYMELSRLRSDDTAVYYCARGVGADAAFDIWGQGTMVTVSS
VL: EIVLTQSPATLSLSPGERATLSCRSSQSLLWKHGYNYLDWYQQKPGQAPRLLIYLDRNRAHGIPARFSGSGSGTDFTLTISSLEPEDFAVYYCMQSFETPITFGQGTKVEIKR
notes: Tested in bivalent format; also called GDF15-470
